Test results published in patent US20120058906A1 (published 2012).

What was measured:
[1] = target: T1, rHuman Notch-1/Fc Chimera, CF (R&D Systems Cat#3647-TK) (human, UniProt P46531 19-526); test: MSD ECL multi-spot plate, antigen immobilized; Fab 1000 nM; blank spot 427
T1 construct: Purchased Fc chimera; not shown: Fc portion of the purchased chimera

[2] = target: T2, rHuman HGF R/c-MET/Fc Chimera, CF (R&D Systems Cat#358-MT/CF) (human, UniProt P08581 25-932); test: as above
T2 construct: Purchased Fc chimera; also called HGF R/Fc; not shown: Fc portion of the purchased chimera

[3] = target: T3, rHuman ErbB2/Fc Chimera, CF (R&D Systems Cat#1129-ER) (human, UniProt P04626 23-652); test: as above
T3 construct: Purchased Fc chimera; also called HER2/neu; not shown: Fc portion of the purchased chimera

[4] = target: T4, rHuman CD44/Fc Chimera, CF (R&D Systems Cat#3660-CD) (human, UniProt P16070 21-220); test: as above
T4 construct: Purchased Fc chimera; not shown: Fc portion of the purchased chimera

[5] = target: T5, rHuman P-Cadherin/Fc Chimera, CF (R&D Systems Cat#861-PC) (human, UniProt P22223 108-654); test: as above
T5 construct: Purchased Fc chimera; not shown: Fc portion of the purchased chimera

[6] = target: T6, rHuman EGF R/Fc Chimera, CF (R&D Systems Cat#344-ER) (human, UniProt P00533 25-645); test: as above
T6 construct: Purchased Fc chimera; not shown: Fc portion of the purchased chimera

[7] = target: T7, rHuman Erythropoietin R/Fc Chimera, CF (R&D Systems Cat#963-ER) (human, UniProt P19235 25-250); test: as above
T7 construct: Purchased Fc chimera; also called EPO R/Fc; Epo R; not shown: Fc portion of the purchased chimera
T7 sequence: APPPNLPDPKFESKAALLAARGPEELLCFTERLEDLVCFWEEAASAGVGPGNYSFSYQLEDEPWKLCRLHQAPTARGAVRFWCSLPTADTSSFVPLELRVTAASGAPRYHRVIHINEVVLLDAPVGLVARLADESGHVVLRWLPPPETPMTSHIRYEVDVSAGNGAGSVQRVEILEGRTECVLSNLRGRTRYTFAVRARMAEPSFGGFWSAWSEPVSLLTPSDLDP

[8] = target: T8, rHuman IGF-1 sR (IGF-1 sR), CF (R&D Systems Cat#391-GR) (human, UniProt P08069 31-932); test: as above
T8 construct: Purchased soluble receptor; also called insulin-like growth factor-1 soluble receptor; IGF-R1

[9] = target: T9, Recombinant Human DLL4 (R&D Systems Cat#1506-D4/CF) (human, UniProt Q9NR61 27-524); test: as above
T9 construct: Purchased recombinant protein; also called delta-like protein 4

[10] = target: T10, rHuman IGF-1 sR (insulin-like growth factor-1 soluble receptor), CF (R&D Systems Cat#391-GR) (human, UniProt P08069 31-932); test: MSD ECL titration, Fab 2383 nM, blank 344
T10 construct: Bought soluble receptor; also called IGF-R1

[11] = target: T11, rHuman Notch-1/Fc Chimera, CF (R&D Systems Cat#3647-TK) (human, UniProt P46531 19-526); test: MSD ECL titration, Fab 2383 nM, blank 344
T11 construct: Bought Fc chimera; Fc part of the bought chimera not given

[12] = target: T12, rHuman HGF R/c-MET/Fc Chimera, CF (R&D Systems Cat#358-MT/CF) (human, UniProt P08581 25-932); test: MSD ECL titration, Fab 2383 nM, blank 344
T12 construct: Bought Fc chimera; also called HGF R/Fc; Fc part of the bought chimera not given

[13] = target: T13, rHuman ErbB2/Fc Chimera, CF (R&D Systems Cat#1129-ER) (human, UniProt P04626 23-652); test: MSD ECL titration, Fab 2383 nM, blank 344
T13 construct: Bought Fc chimera; also called HER2/neu; Fc part of the bought chimera not given

[14] = target: T14, rHuman EGF R/Fc Chimera, CF (R&D Systems Cat#344-ER) (human, UniProt P00533 25-645); test: MSD ECL titration, Fab 2383 nM, blank 344
T14 construct: Bought Fc chimera; Fc part of the bought chimera not given

[15] = target: T15, rHuman CD44/Fc Chimera, CF (R&D Systems Cat#3660-CD) (human, UniProt P16070 21-220); test: MSD ECL titration, Fab 2383 nM, blank 344
T15 construct: Bought Fc chimera; Fc part of the bought chimera not given

[16] = target: T16, rHuman P-Cadherin/Fc Chimera, CF (R&D Systems Cat#861-PC) (human, UniProt P22223 108-654); test: MSD ECL titration, Fab 2383 nM, blank 344
T16 construct: Bought Fc chimera; Fc part of the bought chimera not given

[17] = target: T17, rHuman Erythropoietin R/Fc Chimera, CF (R&D Systems Cat#963-ER) (human, UniProt P19235 25-250); test: MSD ECL titration, Fab 2383 nM, blank 344
T17 construct: Bought Fc chimera; also called EPO R/Fc; EPOR; Fc part of the bought chimera not given
T17 sequence: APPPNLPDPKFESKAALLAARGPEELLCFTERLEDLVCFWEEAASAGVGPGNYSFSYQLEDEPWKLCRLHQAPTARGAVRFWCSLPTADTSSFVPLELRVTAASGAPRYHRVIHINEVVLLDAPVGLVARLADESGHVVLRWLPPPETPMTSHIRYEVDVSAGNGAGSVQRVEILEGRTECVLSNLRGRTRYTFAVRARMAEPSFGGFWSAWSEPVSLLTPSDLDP

[18] = target: T18, Recombinant Human DLL4 (R&D Systems Cat#1506-D4/CF) (human, UniProt Q9NR61 27-524); test: ECL (MSD Multi-Spot) binding assay, antigen spotted on plate; Fab 30 nM; blank spot 213
T18 construct: Bought recombinant protein; also called delta-like protein 4; rHuman DLL4

[19] = target: T19, rHuman P-Cadherin/Fc Chimera, CF (R&D Systems Cat#861-PC) (human, UniProt P22223 108-654); test: as above
T19 construct: Bought Fc chimera; also called CDH3; Fc part of the bought chimera not given
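Further: blank spot per well as comparator with Hit at signal to blank ratio of 4 or more.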

B1: Fab VH5-51_IGHD5-18*01>3_IGHJ4*01_G100R & V3-4_IGLJ1*01 (Fab, V domains shown)
VH: EVQLVQSGAEVKKPGESLKISCKGSGYSFTSYWIGWVRQMPGKGLEWMGIIYPGDSDTRYSPSFQGQVTISADKSISTAYLQWSSLKASDTAMYYCARRRYSYGYDYFDYWGQGTLVTVSS
VL: QTVVTQEPSFSVSPGGTVTLTCGLSSGSVSTSYYPSWYQQTPGQAPRTLIYSTNTRSSGVPDRFSGSILGNKAALTITGAQADDESDYYCVLYMGSGISYVFGTGTKVTVL
notes: It was expressed as a Fab: CH1 with tags from Plasmid A and lambda CL from Plasmid E; also called Fab No. 23
[1]
  ECL signal: 761 ECL signal
[2]
  ECL signal: 778 ECL signal
[3]
  ECL signal: 945 ECL signal
[4]
  ECL signal: 559 ECL signal
[5]
  ECL signal: 762 ECL signal
[6]
  ECL signal: 721 ECL signal
[7]
  ECL signal: 666 ECL signal
[8]
  ECL signal: 733 ECL signal
[9]
  ECL signal: 23400 ECL signal

B2: Fab VH1-46_IGHD6-6*01_IGHJ1*01 & L6_IGKJ1*01 (Fab, V domains shown)
VH: QVQLVQSGAEVKKPGASVKVSCKASGYTFTSYYMHWVRQAPGQGLEWMGIINPSGGSTSYAQKFQGRVTMTRDTSTSTVYMELSSLRSEDTAVYYCAREEYSSSSAEYFQHWGQGTLVTVSS
VL: not shown
notes: Expressed in E. coli as Fab: heavy chain with CH1 plus Flag and His tags from Plasmid A, kappa light chain constant region from Plasmid C; also called Fab No. 1
[10]
  ECL signal: 527
[11]
  ECL signal: 690
[12]
  ECL signal: 762
[13]
  ECL signal: 454
[14]
  ECL signal: 621
[15]
  ECL signal: 559
[16]
  ECL signal: 728
[17]
  ECL signal: 658

B3: Fab VH6-1_IGHD3-3*01_IGHJ4*01 & V4-3_IGLJ4*01 (Fab, V domains shown)
VH: QVQLQQSGPGLVKPSQTLSLTCAISGDSVSSNSAAWNWIRQSPSRGLEWLGRTYYRSKWYNDYAVSVKSRITINPDTSKNQFSLQLNSVTPEDTAVYYCAREYYDFWSGYYTDYFDYWGQGTLVTVSS
VL: QPVLTQPTSLSASPGASARLTCTLRSGINLGSYRIFWYQQKPESPPRYLLSYYSDSSKHQGSGVPSRFSGSKDASSNAGILVISGLQSEDEADYYCMIWHSSASFVFGGGTQLIIL
notes: Tested as a Fab made in E. coli; also called IGHV6-1*01
[18]
  ECL signal: 736
[19]
  ECL signal: 440
